Measured values from patent US20160024496.
Read-outs that look alike come from different tables or passages of the source.

Tests used:
[1] = target: PGA5 (Homo sapiens) (UniProt P0DJD9); conditions: proteome array, scrambled control
[2] = target: T1, ORAOV1 (Homo sapiens) (UniProt Q8WV07); conditions: proteome array, scrambled control
T1 sequence: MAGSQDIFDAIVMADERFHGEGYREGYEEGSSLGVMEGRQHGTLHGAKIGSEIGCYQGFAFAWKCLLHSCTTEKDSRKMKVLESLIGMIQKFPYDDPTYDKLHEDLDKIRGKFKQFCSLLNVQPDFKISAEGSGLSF

[3] = system: SOX6 (Homo sapiens), P35712-4; conditions: proteome array, scrambled control
Chain of SOX6 (Homo sapiens), P35712-4 (P35712 other isoform, or with tags, fused parts or gaps): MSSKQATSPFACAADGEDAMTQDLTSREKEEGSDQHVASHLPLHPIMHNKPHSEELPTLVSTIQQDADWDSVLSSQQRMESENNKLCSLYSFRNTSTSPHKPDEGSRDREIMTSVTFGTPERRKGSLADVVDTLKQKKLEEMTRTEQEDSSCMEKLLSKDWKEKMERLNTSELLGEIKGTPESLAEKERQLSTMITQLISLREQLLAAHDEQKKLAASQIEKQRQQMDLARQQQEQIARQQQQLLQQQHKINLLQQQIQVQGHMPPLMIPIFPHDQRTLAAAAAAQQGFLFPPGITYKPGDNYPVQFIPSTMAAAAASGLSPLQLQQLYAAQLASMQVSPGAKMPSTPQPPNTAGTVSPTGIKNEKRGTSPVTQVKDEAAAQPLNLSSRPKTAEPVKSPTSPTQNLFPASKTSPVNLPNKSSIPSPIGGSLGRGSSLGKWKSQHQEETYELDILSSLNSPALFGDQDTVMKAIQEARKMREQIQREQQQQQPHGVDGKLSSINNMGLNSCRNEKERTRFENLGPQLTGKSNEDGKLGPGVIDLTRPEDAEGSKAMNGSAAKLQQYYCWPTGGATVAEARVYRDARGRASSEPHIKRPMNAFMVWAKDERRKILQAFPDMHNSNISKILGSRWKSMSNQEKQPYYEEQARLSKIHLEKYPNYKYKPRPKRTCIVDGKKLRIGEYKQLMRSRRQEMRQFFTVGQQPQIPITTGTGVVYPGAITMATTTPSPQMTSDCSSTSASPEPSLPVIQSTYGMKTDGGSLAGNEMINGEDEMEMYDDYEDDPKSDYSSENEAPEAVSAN

[4] = target: WBP11 (Homo sapiens) (UniProt Q9Y2W2); conditions: proteome array, scrambled control
Chain of WBP11 (Homo sapiens) (Q9Y2W2 whole entry): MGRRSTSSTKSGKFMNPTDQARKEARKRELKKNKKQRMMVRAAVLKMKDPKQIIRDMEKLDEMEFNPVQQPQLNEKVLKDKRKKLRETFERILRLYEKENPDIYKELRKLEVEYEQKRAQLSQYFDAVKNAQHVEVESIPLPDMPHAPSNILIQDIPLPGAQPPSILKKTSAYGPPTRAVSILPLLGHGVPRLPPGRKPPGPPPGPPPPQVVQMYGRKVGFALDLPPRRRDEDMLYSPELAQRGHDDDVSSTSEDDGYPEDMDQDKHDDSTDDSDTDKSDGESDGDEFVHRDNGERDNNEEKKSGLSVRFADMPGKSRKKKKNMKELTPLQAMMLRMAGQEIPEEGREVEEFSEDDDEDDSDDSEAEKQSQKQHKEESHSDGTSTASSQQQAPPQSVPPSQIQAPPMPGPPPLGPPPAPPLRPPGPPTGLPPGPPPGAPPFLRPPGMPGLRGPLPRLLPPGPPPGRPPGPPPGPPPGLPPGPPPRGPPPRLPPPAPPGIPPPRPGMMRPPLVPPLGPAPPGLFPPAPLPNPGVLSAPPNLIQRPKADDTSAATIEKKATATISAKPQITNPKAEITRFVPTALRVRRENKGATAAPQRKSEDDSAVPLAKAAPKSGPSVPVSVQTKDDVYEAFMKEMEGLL

[5] = target: JARID2 (Homo sapiens) (UniProt Q92833); conditions: proteome array, scrambled control
Chain of JARID2 (Homo sapiens) (Q92833 whole entry): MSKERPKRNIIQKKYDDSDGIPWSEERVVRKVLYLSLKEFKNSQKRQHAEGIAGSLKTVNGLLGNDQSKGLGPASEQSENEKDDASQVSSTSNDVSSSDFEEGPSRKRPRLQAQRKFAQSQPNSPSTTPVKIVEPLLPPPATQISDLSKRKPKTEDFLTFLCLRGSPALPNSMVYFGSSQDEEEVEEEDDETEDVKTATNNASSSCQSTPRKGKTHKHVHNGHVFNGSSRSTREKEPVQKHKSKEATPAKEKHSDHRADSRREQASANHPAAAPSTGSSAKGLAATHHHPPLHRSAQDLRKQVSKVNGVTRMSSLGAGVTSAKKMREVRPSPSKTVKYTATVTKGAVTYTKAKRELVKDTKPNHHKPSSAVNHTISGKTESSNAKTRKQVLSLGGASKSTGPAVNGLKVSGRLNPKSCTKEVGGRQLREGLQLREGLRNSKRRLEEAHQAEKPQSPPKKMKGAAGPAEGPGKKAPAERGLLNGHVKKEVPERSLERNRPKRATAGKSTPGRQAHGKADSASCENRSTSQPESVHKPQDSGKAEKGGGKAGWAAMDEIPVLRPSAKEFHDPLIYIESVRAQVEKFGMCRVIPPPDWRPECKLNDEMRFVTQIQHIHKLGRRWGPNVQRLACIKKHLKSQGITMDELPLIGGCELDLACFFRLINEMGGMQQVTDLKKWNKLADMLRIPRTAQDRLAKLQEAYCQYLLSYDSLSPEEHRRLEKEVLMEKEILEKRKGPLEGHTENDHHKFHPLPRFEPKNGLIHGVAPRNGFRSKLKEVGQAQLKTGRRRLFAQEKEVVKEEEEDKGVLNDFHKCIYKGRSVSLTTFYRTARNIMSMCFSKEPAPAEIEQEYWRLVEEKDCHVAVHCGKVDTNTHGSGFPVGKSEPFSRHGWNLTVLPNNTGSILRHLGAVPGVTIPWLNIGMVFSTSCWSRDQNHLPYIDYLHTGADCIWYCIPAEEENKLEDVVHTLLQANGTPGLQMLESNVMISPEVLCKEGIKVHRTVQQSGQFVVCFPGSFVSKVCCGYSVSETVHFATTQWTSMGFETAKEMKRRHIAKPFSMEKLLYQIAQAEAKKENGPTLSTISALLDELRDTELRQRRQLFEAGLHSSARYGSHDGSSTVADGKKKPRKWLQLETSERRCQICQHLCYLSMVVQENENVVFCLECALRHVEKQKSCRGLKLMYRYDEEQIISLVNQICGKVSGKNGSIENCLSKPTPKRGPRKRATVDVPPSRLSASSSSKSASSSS

[6] = system: T2, DAZ2 (Homo sapiens), Q13117-3; conditions: proteome array, scrambled control
T2 sequence: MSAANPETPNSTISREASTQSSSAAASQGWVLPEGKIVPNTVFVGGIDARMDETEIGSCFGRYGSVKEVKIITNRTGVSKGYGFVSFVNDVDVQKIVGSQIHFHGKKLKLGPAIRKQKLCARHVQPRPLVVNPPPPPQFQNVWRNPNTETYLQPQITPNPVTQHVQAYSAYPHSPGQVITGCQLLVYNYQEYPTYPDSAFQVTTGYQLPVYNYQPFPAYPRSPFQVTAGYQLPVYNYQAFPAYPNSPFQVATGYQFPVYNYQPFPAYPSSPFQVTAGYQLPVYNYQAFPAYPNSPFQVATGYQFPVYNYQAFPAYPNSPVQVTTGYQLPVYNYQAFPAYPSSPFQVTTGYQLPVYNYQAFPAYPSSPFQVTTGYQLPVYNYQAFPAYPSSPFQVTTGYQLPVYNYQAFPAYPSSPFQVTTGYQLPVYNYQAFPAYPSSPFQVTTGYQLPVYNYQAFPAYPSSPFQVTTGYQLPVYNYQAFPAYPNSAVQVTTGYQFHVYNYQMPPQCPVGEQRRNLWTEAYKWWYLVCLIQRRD

[7] = target: T3, PTER (Homo sapiens) (UniProt Q96BW5); conditions: proteome array, scrambled control
T3 sequence: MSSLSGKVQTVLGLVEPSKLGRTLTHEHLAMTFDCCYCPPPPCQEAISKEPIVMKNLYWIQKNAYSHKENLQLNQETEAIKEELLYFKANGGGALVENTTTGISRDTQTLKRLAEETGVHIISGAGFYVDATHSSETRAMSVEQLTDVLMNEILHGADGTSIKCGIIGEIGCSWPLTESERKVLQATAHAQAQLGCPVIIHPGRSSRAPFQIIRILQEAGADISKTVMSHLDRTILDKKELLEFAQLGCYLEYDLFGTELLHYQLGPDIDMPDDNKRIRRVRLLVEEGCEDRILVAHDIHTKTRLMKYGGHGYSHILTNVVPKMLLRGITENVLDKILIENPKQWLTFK

[8] = target: TRIM32 (Homo sapiens) (UniProt Q13049); conditions: proteome array, scrambled control
Chain of TRIM32 (Homo sapiens) (Q13049 whole entry): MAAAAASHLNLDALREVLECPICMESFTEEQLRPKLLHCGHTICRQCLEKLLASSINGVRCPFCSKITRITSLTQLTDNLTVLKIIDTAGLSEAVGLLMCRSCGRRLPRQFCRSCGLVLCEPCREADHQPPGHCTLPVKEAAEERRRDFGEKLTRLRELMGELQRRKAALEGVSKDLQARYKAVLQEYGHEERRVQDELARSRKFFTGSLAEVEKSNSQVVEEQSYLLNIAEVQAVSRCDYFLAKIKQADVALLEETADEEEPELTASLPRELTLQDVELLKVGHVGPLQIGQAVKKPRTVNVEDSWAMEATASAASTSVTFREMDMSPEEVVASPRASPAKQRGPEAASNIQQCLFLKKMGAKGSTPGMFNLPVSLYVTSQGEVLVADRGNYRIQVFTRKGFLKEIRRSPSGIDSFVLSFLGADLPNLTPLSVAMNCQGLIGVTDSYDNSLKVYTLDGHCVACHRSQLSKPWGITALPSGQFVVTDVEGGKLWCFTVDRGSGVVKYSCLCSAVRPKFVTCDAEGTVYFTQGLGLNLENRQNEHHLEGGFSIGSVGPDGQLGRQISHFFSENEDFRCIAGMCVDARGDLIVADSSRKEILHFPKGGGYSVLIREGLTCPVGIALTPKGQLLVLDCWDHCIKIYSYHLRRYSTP

[9] = target: T4, ADARB2 (Homo sapiens) (UniProt Q9NS39); conditions: proteome array, scrambled control
T4 sequence: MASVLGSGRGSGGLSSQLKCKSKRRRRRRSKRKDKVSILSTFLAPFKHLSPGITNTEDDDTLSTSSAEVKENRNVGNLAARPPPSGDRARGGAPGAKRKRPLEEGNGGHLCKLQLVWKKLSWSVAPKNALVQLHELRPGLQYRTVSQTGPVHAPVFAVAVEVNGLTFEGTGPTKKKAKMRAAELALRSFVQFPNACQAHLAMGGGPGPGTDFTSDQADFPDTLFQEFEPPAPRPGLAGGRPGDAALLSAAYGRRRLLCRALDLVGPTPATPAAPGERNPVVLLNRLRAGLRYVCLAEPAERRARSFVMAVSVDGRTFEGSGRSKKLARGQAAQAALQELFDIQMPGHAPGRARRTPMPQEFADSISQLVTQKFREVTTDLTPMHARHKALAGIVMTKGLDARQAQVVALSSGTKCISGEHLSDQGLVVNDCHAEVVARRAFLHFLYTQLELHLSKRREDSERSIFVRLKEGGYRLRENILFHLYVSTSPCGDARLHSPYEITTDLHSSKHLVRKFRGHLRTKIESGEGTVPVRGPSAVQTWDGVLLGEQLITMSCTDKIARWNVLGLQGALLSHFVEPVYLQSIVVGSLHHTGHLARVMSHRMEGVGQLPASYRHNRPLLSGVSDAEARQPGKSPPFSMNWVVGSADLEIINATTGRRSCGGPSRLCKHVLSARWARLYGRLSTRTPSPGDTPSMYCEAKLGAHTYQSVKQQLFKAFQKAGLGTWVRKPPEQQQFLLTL

[10] = target: T5, NDST1 (Homo sapiens) (UniProt P52848); conditions: proteome array, scrambled control
T5 sequence: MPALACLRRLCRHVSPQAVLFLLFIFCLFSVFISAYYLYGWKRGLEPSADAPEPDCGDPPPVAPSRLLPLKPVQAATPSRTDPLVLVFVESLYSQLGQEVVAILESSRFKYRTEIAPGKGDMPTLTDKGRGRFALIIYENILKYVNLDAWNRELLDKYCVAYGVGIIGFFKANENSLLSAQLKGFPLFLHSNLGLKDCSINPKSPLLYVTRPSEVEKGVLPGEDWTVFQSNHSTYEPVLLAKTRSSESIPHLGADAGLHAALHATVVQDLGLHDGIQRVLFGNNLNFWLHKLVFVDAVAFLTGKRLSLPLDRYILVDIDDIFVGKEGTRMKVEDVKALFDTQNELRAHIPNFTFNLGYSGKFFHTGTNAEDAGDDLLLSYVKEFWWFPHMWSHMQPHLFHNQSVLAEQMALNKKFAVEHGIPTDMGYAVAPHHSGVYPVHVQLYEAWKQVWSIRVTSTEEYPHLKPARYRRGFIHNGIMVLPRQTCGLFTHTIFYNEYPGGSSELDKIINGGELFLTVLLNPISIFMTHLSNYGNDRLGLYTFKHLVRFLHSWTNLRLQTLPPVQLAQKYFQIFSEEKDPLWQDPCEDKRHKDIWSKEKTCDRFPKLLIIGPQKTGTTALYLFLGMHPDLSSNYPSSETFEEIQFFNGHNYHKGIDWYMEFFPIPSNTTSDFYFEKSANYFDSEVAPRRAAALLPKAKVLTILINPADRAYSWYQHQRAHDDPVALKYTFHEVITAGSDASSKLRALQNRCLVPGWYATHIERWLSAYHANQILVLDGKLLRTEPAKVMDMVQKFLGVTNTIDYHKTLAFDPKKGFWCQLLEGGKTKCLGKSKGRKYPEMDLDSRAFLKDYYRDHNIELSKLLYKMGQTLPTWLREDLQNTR

[11] = target: T6, MPP7 (Homo sapiens) (UniProt Q5T2T1); conditions: proteome array, scrambled control
T6 sequence: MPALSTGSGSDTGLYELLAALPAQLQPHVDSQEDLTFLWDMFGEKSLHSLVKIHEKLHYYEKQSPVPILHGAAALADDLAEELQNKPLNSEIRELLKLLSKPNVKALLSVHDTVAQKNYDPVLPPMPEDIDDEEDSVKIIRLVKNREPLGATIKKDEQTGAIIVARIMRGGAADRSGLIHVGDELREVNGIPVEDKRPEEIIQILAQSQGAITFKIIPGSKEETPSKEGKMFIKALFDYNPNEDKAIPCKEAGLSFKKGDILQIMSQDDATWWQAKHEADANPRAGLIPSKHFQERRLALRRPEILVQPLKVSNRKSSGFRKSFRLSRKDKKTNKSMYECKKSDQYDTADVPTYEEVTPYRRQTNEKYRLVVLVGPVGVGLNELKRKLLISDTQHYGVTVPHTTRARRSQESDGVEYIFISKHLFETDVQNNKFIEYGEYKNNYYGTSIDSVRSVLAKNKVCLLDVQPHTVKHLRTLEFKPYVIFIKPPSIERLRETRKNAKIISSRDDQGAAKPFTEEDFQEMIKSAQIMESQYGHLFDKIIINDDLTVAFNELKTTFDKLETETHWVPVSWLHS

[12] = target: T7, RANGAP1 (Homo sapiens) (UniProt P46060); conditions: proteome array, scrambled control
T7 sequence: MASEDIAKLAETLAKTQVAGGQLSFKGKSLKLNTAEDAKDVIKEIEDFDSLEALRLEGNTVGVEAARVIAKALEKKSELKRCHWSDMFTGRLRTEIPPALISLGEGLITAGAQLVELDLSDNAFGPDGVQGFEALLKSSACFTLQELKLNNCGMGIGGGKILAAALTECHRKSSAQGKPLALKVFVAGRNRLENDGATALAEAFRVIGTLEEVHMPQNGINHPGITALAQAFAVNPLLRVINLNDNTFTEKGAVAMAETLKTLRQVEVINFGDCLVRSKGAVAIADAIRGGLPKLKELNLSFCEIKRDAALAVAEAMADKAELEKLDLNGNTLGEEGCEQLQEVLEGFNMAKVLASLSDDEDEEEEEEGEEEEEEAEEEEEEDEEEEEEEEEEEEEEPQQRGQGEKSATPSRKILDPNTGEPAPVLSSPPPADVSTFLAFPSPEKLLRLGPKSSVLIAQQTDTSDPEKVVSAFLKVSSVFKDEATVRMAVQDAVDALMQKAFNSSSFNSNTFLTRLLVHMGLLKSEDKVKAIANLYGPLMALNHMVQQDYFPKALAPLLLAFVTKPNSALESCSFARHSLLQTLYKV

[13] = system: MITF (Homo sapiens), O75030-2; conditions: proteome array, scrambled control
Chain of MITF (Homo sapiens), O75030-2 (O75030 other isoform, or with tags, fused parts or gaps): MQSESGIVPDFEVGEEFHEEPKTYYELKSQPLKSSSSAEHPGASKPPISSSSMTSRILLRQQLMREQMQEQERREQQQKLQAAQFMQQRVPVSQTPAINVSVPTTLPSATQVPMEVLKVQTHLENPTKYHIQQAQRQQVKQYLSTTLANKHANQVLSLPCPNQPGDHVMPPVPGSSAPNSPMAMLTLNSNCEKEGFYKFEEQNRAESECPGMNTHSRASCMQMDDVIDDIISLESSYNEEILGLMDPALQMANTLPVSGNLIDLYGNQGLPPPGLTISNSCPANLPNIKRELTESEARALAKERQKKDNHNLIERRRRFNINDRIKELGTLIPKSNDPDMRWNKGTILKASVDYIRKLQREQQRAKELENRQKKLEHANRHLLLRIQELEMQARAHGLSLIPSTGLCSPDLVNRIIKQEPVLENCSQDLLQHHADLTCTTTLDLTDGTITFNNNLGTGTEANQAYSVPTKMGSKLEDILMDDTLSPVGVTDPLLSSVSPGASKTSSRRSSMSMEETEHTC

[14] = target: T8, HMGB2 (Homo sapiens) (UniProt P26583); conditions: proteome array, scrambled control
T8 sequence: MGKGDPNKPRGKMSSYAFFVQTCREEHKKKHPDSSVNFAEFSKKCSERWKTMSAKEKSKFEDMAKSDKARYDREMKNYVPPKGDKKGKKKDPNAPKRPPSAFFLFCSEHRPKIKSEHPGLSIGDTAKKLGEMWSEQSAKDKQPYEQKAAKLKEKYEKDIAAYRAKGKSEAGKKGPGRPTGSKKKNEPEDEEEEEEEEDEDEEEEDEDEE

[15] = system: T9, DPH2 (Homo sapiens), Q9BQC3-2; conditions: proteome array
T9 sequence: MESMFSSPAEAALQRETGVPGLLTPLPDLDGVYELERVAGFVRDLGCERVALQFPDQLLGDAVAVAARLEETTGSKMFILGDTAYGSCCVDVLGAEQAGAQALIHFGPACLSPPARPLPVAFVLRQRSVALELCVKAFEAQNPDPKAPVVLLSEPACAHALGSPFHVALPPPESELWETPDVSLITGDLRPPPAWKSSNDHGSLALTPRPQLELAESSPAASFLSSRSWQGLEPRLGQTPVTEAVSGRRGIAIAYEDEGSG

[16] = system: ZNF695 (Homo sapiens), Q8IW36-1; conditions: proteome array
Chain of ZNF695 (Homo sapiens), Q8IW36-1 (Q8IW36 other isoform, or with tags, fused parts or gaps): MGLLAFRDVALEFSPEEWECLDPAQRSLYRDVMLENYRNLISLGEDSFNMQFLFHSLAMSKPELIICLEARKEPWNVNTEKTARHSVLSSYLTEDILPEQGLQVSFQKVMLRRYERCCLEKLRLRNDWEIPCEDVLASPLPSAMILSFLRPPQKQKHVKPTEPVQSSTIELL

[17] = target: T10, NUDT6 (Homo sapiens) (UniProt P53370); conditions: proteome array, scrambled control
T10 sequence: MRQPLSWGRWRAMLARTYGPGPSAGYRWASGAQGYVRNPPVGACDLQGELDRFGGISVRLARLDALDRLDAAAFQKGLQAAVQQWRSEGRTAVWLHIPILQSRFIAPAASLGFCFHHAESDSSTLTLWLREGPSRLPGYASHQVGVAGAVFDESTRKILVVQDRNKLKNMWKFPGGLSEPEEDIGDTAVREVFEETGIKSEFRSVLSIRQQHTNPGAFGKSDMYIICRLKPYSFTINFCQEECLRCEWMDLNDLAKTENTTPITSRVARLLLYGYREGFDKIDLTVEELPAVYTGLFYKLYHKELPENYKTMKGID

[18] = target: CYP2C9 (Homo sapiens) (UniProt P11712); conditions: proteome array, scrambled control
Chain of CYP2C9 (Homo sapiens) (P11712 whole entry): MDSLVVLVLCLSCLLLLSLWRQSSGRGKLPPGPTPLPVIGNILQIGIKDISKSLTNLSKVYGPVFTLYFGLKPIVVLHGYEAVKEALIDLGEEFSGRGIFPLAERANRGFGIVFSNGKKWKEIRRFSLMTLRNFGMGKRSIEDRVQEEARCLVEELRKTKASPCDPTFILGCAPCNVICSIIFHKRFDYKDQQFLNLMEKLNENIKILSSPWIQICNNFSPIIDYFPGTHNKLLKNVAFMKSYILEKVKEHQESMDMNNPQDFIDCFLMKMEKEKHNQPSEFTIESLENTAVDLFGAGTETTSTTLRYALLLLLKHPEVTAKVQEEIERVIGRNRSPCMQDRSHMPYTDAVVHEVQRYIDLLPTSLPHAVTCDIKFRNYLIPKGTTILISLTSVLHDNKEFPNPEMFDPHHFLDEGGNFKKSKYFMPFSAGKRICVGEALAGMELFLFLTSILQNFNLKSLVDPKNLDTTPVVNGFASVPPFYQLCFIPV

[19] = target: T11, TCL1B (Homo sapiens) (UniProt O95988); conditions: proteome array, scrambled control
T11 sequence: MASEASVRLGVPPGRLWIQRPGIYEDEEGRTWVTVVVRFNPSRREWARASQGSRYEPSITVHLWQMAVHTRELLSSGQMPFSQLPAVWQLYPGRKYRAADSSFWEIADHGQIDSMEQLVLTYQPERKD

Chain of PGA5 (Homo sapiens) (P0DJD9 16-388): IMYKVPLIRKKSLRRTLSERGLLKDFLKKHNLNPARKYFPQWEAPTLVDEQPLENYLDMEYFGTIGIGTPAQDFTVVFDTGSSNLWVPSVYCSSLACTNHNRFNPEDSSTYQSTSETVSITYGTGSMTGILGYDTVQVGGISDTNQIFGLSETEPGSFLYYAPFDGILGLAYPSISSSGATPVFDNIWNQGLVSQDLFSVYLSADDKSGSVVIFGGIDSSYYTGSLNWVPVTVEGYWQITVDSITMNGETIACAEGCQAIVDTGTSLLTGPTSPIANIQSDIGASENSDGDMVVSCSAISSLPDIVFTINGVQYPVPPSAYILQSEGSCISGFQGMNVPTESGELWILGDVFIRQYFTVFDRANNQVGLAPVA

With GC-scrambled RNA the binding signal [1] was 2.96 Z-score, the binding signal [2] was 0.41 Z-score and the binding signal [3] was 1.16 Z-score. The binding signal [4] was -0.17 Z-score, the binding signal [5] was 0.64 Z-score and the binding signal [6] was 7.8 Z-score. It also gave a binding signal [7] of 4.09 Z-score, a binding signal [8] of 4.63 Z-score and a binding signal [9] of -0.2 Z-score. The binding signal [10] was 8.06 Z-score, the binding signal [11] was 0.3 Z-score and the binding signal [12] was 1.21 Z-score. It also gave a binding signal [13] of 6.71 Z-score, a binding signal [14] of 1.23 Z-score and a binding signal ([15]; scrambled control) of 3.43 Z-score. It also gave a binding signal ([16]; scrambled control) of 2.18 Z-score, a binding signal [17] of 8.38 Z-score and a binding signal [18] of 1.49 Z-score. For the same substance, the binding signal [19] was 5.42 Z-score.

Substance “GGGGCCGGGGCCGGGGCCGGGGCCGGGGCCGGGGCCGGG [GGGGCCx6.5 RNA]” has a binding signal ([15]; [none], delta Z 10.61) of 14 Z-score and a binding signal ([16]; [none], delta Z 2.58) of 4.76 Z-score.
